Laboratory results from US20240390512A1, “METHODS OF TREATING CHEMOTHERAPY-RESISTANT CANCER WITH AN ANTIBODY-DRUG CONJUGATE” (DAIICHI SANKYO COMPANY, LIMITED, priority 2021, published 2024).

T1: hCDH6-transfected 293T cells (Homo sapiens, UniProt P55285)
T1 construct: expressed in transfected cells; host or cells: 293T cells (ATCC)
T1 sequence (P55285 19-790): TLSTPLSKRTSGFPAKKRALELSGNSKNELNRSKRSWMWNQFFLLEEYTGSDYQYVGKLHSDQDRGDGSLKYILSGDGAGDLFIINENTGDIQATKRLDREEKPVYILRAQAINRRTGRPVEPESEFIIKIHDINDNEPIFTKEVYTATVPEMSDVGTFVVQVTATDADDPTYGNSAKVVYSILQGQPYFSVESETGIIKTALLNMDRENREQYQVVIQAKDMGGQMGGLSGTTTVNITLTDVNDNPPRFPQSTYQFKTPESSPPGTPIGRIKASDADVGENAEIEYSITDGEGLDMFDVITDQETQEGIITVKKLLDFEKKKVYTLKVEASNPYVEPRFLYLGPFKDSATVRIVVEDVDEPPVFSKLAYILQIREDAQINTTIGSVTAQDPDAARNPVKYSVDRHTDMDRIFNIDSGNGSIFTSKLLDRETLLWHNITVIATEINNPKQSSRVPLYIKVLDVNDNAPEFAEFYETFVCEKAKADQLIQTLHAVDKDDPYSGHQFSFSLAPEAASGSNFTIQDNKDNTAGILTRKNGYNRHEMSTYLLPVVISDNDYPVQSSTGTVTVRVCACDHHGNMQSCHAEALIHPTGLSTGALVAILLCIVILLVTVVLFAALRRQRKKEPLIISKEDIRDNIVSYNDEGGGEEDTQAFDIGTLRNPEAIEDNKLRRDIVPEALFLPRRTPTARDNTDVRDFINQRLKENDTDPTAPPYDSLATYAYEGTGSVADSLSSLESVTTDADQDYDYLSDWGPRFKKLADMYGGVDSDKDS

T2: human CDH6 (Homo sapiens, UniProt P55285)
T2 construct: expressed in transfected cells; host or cells: 293α cells (HEK293 stably expressing integrin αv and β3)
T2 sequence (P55285 19-790): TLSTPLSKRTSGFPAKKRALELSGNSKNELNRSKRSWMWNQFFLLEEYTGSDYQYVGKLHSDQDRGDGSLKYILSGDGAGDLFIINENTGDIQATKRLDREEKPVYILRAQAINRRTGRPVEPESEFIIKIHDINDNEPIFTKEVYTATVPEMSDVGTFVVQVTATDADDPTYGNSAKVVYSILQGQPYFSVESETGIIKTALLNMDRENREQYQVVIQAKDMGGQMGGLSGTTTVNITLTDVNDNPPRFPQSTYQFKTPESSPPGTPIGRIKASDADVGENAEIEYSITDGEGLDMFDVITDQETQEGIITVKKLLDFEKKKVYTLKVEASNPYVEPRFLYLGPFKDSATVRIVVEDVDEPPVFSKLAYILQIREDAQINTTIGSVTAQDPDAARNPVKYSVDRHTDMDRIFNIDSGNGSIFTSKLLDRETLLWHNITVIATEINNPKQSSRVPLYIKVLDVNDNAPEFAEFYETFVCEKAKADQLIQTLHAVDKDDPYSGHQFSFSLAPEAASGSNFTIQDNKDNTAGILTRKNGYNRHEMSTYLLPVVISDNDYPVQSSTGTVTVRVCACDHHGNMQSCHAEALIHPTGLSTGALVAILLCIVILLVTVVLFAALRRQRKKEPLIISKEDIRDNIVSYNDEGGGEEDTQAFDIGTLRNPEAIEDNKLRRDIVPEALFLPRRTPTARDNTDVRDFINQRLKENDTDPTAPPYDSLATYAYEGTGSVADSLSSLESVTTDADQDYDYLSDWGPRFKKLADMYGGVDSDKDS


Legend:
[1] = molecular target: T1, hCDH6-transfected 293T cells; assay: Binding ability of rat anti-CDH6 antibody by flow cytometry; details: antibody final concentration 10 ng/mL
Procedure: The human CDH6-binding activity of the rat anti-CDH6 antibody produced in Reference Example 1)-7 was evaluated by flow cytometry. Using Lipofectamine 2000 (Thermo Fisher Scientific Inc.), pcDNA3.1-hCDH6 produced in Reference Example 1)-1 was transiently introduced into 293T cells (ATCC). The cells were cultured overnight under conditions of 37° C. and 5% CO2, and thereafter, a cell suspension was prepared. The suspension of the transfected 293T cells was centrifuged, and the supernatant was then removed. Thereafter, the cells were suspended by the addition of each of the 4 rat anti-CDH6 monoclonal antibodies (clone Nos: rG019, rG055, rG056 and rG061), which had been prepared in Reference Example 1)-7, or rat IgG control (R&D Systems, Inc.) (final concentration: 10 ng/mL). The cells were left standing at 4° C. for 1 hour. The cells were washed twice with PBS supplemented with 5% FBS, and then suspended by the addition of Anti-Rat IgG (whole molecule)-FITC antibody produced in rabbit (Sigma-Aldrich Co. LLC) that had been 50-fold diluted with PBS supplemented with 5% FBS. The cells were left standing at 4° C. for 1 hour. The cells were washed twice with PBS supplemented with 5% FBS, followed by detection using a flow cytometer (FC500; Beckman Coulter, Inc.). The data was analyzed using FlowJo (Tree Star, Inc.). In the histogram of FIG. 1, the abscissa depicts FITC fluorescence intensity indicating the amount of the antibody bound, and the ordinate depicts a cell count. […] The rat IgG control binds to neither of the cells. As a result, it was confirmed that the 4 produced rat anti-CDH6 monoclonal antibodies bind to 293T cells transfected with pcDNA3.1-hCDH6.

human CDH6 = molecular target: T2, human CDH6; assay: Hybridoma screening by Cell-ELISA; format: binding; details: hybridoma culture supernatant; 293α cells transfected with pcDNA3.1-hCDH6
Procedure: 293α cells (a stable expression cell line derived from HEK293 cells expressing integrin αv and integrin β3) were prepared at 5×10^5 cells/mL in DMEM medium supplemented with 10% FBS. In accordance with transduction procedures for using Lipofectamine 2000 (Thermo Fisher Scientific Inc.), DNA of pcDNA3.1-hCDH6 or pcDNA3.1-cynoCDH6, or pcDNA3.1 as a negative control was introduced into the 293α cells, and the cells were dispensed in an amount of 100 μL/well onto a 96-well plate (Corning Inc.). Thereafter, the cells were cultured under conditions of 37° C. and 5% CO2 in DMEM medium supplemented with 10% FBS for 24 to 27 hours. The obtained transfected cells were used for Cell-ELISA in an adhesive state.
The culture supernatant of the 293α cells transfected with the expression vector prepared in Reference Example 1)-4-1 was removed, and the culture supernatant from each hybridoma was then added to the 293α cells transfected with pcDNA3.1-hCDH6 or pcDNA3.1-cynoCDH6, or pcDNA3.1. The cells were left standing at 4° C. for 1 hour. The cells in the wells were washed once with PBS (+) supplemented with 5% FBS, and thereafter, Anti-Rat IgG-Peroxidase antibody produced in rabbit (Sigma-Aldrich Co. LLC) that had been 500-fold diluted with PBS (+) supplemented with 5% FBS was added to the wells. The cells were left standing at 4° C. for 1 hour. The cells in the wells were washed three times with PBS (+) supplemented with 5% FBS, and thereafter, OPD coloring solution (which had been prepared by dissolving o-phenylenediamine dihydrochloride (Wako Pure Chemical Industries, Ltd.) and H2O2 in an OPD solution (0.05 M trisodium citrate, 0.1 M disodium hydrogen phosphate 12-water; pH 4.5), so that the substances became 0.4 mg/ml and 0.6% (v/v), respectively, was added in an amount of 100 μL/well to the wells. A coloring reaction was carried out with occasional stirring. Thereafter, 1 M HCl was added to the plate (100 μL/well) to terminate the coloring reaction, followed by measurement of the absorbance at 490 nm using a plate reader (ENVISION: PerkinElmer, Inc.).
The heavy chain subclass and the light chain type of the antibody were determined using a RAT MONOCLONAL ANTIBODY ISOTYPING TEST KIT (DS Pharma Biomedical Co., Ltd.).

Row | binding to 293T cells transfected with pcDNA3.1-hCDH6 [1] | binding to human CDH6 (human CDH6) | Molecule
1 | bind | bind specifically and strongly | rG061: rat anti-human CDH6 monoclonal antibody produced by hybridoma rG061; variable regions SEQ ID NO: 40 and 45 (antibody, listed as Rattus norvegicus, V domains shown) VL: DVQMTQSPSYLAASPGESVSISCKATKSISNYLAWYQQKPGEAYKVLIYSGSTLQSGTPSRFSGSGSGTDFTLTIRSLEPEDFGLYSCQQYYEKPLTFGSGTKLEIKRA VH: EVQLQESGPGLVKPSQSLSLTCSVTGYSITTYYWGWIRKFPGNKMEWMGYISYSGRTSYNPSLKSRMSITRDASKNQFFLQLNSVTTDDTATYYCARSPINHGGYWYFDFWGPGTMVTVSS
2 | bind | bind specifically and strongly | rG056: rat anti-human CDH6 monoclonal antibody produced by hybridoma rG056; variable regions SEQ ID NO: 30 and 35 (antibody, listed as Rattus norvegicus, V domains shown) VL: DVQMTQSPSSLAASPGESVSISCRATKSIGIYLAWYQQKPGKTFKLLIYSGSTLQSGTPSRFSGSGSGTDFTLTIRSLEPEDFGLYFCQQFYENPFTFGSGTKLEIRRA VH: EVQLQESGPGLVKPSQSLSLTCSVTDYSITTYFWGWIRKFPGNKMEWMGYMSYRGGTSYNPSLKSRISITRDTSKNQFFLQLNSVTTEDTATYYCARCPNYGGHSLVFDYWGQGVMVTVSS

Further lines, the molecule ahead of its results:

Row | Molecule | binding to 293T cells transfected with pcDNA3.1-hCDH6 [1] | binding to human CDH6 (human CDH6)
3 | rG055: rat anti-human CDH6 monoclonal antibody produced by hybridoma rG055; variable regions SEQ ID NO: 20 and 25 (antibody, listed as Rattus norvegicus, V domains shown) VL: DVQMTHSPSYLAASPGESVSISCKTSKNISNYLVWYQQKPGEAYKLLIYSGSTLQSGTPSRFSGSGSGTDFTLTIRSLEPEDFGLYFCQQYYEKPFTFGSGTKLEIKRA VH: EVQLQESGPGLVRPSQSLSLSCSVTDYSITSNYWGWIRRFPGNKMEWMGYITYSGYTSYNPSLQSRISITRDTSKNQFFLQLNSVTAEDTATYYCARSINHGGYSYVVDAWGPGASVTVSS | bind | bind specifically and strongly
4 | rG019: rat anti-human CDH6 monoclonal antibody produced by hybridoma rG019; variable regions SEQ ID NO: 10 and 15 (antibody, listed as Rattus norvegicus, V domains shown) VL: DIQMTQSPSLLSASVGDRVTLNCKASQNIYKNLAWYQQKLGEGPKLLIYDANTLQTGIPSRFSGSGSGSDFTLTISSLQPEDVATYFCQQYYSGWAFGGVTNLELKRA VH: QVQLQQSGAELVKPGSSVKISCKASGYTFTRNFMHWIKQQPGNGLEWIGWIYCGDGETEYNQKFNGKATLTADRSSSTAYMELSRLTSEDSAVYFCARGVYGGFAGGYFDFWGQGVMVTVSS | bind | bind specifically and strongly
